Source: patent publication US20250282879A1 (CILAG GMBH INTERNATIONAL, published 2025)
Where two headings read alike, the source gives them in different places.

Experiments:
cynomolgus IL-4R-Fc = molecular target: T1, cynomolgus IL-4R-Fc (cynomolgus monkey (Macaca fascicularis), UniProt A0A2K5V580 33-239); assay: SPR, capture setup, cynomolgus IL-4R-Fc captured
T1 construct: also called cynomolgus IL-4R capture setup; not shown: Fc part
Method: (§1) Affinity of the optimized anti-IL-4R scFvs PRO1898 and PRO1899 to human IL-4R was determined by SPR analysis on a T200 device (Biacore, GE Healthcare), as described above in section 1.2.2. The scFvs were measured using a dose response multi-cycle kinetic assay with seven analyte concentrations ranging from 0.12 to 90 nM diluted in running buffer. Obtained sensorgrams were fitted using a 1:1 binding model.
Affinity of the optimized anti-IL-4R scFvs PRO1898 and PRO1899 to cynomolgus IL-4R was measured using the same setup as for the analysis of human IL-4R affinities, with the difference that cynomolgus IL-4R-Fc was captured instead of human IL-4R-Fc, as described above in section 1.2.2.

[1] = molecular target: T2, human IL-4R (form not stated) (human, UniProt P24394 26-232, limits assumed); assay: competition ELISA, hIL-4/IL-4R
T2 construct: whole entry named; also called hIL-4R
Method: Potency of the optimized anti-IL-4R scFvs PRO1898 and PRO1899 scFvs was determined using a competitive ELISA. The potency of each scFv to inhibit the interaction between human IL-4 and human IL-4R was assessed by ELISA as described in section 1.2.2. Similarly, to the stat-6 reporter gene assay, individual IC₅₀ values on each plate were calibrated against the IC₅₀ of the reference molecule dupilumab.

Human IL-4R-Fc [2] = molecular target: T3, Human IL-4R-Fc (human, UniProt P24394 26-232); assay: SPR, hIL-4R-Fc captured, scFv analyte
T3 construct: also called human IL-4R (scFv SPR, capture setup); not shown: Fc part
Method: as §1

marmoset IL-4R ECD = molecular target: T4, marmoset IL-4R ECD (marmoset (Callithrix jacchus), UniProt Q0PIT7 26-232); assay: SPR, direct setup, marmoset IL-4R ECD immobilized
T4 construct: immobilized directly on the sensor chip; also called marmoset monkey IL-4R
T4 sequence (Q0PIT7 entry or part of it limits assumed): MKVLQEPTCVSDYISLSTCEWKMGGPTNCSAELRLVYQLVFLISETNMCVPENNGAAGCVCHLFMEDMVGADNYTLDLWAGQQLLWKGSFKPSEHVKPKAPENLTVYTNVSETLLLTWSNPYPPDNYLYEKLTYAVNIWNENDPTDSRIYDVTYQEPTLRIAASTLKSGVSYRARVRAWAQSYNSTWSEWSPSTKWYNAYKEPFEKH

[3] = molecular target: T5, human IL-4R on cells (HEK-Blue IL-4/IL-13 cells, human PBMC, human whole blood) (human, UniProt P24394 26-825); assay: cell-based or functional assay
Human IL-4R-Fc [4] = molecular target: T3, Human IL-4R-Fc; assay: SPR, hIL-4R-Fc captured, scFv analyte; remark: listed apart in the source
[5] = molecular target: T6, human IL-4R on transfected HEK293T cells (human, UniProt P24394 26-825); assay: flow cytometry, transfected HEK293T cells
T6 construct: whole, on cells; also called human IL-4R-expressing HEK293T cells; not shown: V5 Tag fused to the N-terminus of the expression construct
Excerpt: (§2) To test binding of the Morrison-H and Morrison-L antibodies PRO2198, PRO2199, PRO2206 and PRO2207 to human or cynomolgus IL-4R-expressing HEK293T cells, HEK293T cells were transfected with human and cynomolgus IL-4R plasmids and mock plasmid using Lipofectamine3000. Binding of an antibody targeting V5 Tag, which is fused to the N-terminus of human and cynomolgus IL-4R expression constructs, would confirm successful expression of both targets and was thus used as a positive control for plasma membranous binding. The Morrison-H molecule PRO2077 was used as negative control for cynomolgus IL-4R binding since this molecule had not shown any cross-reactivity to cynomolgus IL-4R (see section 5.3.).
(§3) 50,000 transfected HEK293T cells per well were seeded in a 96-well plate. 5-fold serial dilutions of the Morrison-H and Morrison-L antibodies PRO2198, PRO2199, PRO2206 and PRO2207 and of the control molecule PRO2077, which is not cross-reactive to cynomolgus IL-4R, were added at concentrations ranging from 5,000 to 0.32 ng/ml to the plates and incubated for 60 min at 4° C. on a shaker. Supernatants were removed and detection reagent was added for flow cytometry analysis. The geometric mean of the APC fluorescence intensity of single cells was calculated.

[6] = molecular target: T7, cynomolgus IL-4R on transfected HEK293T cells (cynomolgus monkey, UniProt A0A2K5V580 33-832); assay: flow cytometry, transfected HEK293T cells
T7 construct: whole, on cells; also called cynomolgus IL-4R-expressing HEK293T cells; not shown: V5 Tag fused to the N-terminus of the expression construct
T7 sequence (A0A2K5V580 entry or part of it): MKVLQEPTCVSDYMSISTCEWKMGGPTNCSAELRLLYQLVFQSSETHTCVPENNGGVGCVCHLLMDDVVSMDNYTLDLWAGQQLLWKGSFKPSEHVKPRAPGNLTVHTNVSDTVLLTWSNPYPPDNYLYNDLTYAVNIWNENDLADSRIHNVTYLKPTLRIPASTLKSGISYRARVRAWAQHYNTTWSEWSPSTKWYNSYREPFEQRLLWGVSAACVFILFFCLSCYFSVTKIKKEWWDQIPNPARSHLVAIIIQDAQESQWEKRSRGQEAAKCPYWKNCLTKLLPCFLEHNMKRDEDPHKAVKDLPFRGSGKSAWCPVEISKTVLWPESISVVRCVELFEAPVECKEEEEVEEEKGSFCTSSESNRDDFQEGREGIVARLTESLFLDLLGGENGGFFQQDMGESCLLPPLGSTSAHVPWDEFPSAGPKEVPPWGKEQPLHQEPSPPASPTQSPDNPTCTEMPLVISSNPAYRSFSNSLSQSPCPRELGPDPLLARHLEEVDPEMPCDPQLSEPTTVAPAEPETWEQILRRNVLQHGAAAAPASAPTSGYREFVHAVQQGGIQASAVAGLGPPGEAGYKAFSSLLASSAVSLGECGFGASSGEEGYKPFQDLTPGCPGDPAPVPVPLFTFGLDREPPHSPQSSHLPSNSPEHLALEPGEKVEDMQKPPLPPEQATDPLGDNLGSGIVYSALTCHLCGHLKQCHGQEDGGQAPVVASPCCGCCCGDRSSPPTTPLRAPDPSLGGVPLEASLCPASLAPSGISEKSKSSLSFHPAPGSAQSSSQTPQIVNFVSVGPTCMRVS
Excerpt: as §2, §3

[7] = molecular target: T8, recombinant human IL-4R protein (ECD with His Tag, Sino Biological) (human, UniProt P24394 26-232); assay: SPR, Morrison captured via anti-human IgG-Fc, IL-4R ECD-His analyte
T8 construct: extracellular domain; bought; also called human IL-4R ECD; not shown: His Tag
Method: (§4) Binding kinetics (including affinity) of the bispecific Morrison-H (PRO2198, PRO2199) and Morrison-L (PRO2206, PRO2207) molecules to recombinant human IL-4R protein (ECD with His Tag, Sino Biological) were determined by SPR analysis on a T200 device (Biacore, Cytiva). In this SPR experiment, Morrison molecules were captured via an anti-human IgG-Fc antibody (Human Antibody Capture Kit; Biacore, Cytiva) covalently immobilized to a carboxylmethylated dextran surface (CM5 sensorchip; Biacore, Cytiva) and a titration series of human IL-4R ECD was injected as analyte. After each analyte injection cycle, the sensor chip was regenerated (MgCl₂), and new Morrison antibody was subsequently re-captured. […] The apparent dissociation (kd) and association (kₐ) rate constants and the apparent dissociation equilibrium constant (KD) were calculated with the Biacore analysis software (Biacore Evaluation software Version 3.2, Cytiva) using one-to-one Langmuir binding model and quality of the fits was monitored based on Chi2 and U-value, which are measures for the quality of the curve fitting. The binding level was calculated as the maximum stability binding achieved normalized to the theoretical Rmax. Cross-reactivity to cynomolgus monkey IL-4R was measured using the same setup as for the analysis of human IL-4R kinetics, with the difference that recombinant cynomolgus monkey IL-4R (ECD with His-tag, Acro Biosystems) protein was used as analyte instead of human IL-4R.

[8] = molecular target: T9, recombinant cynomolgus monkey IL-4R (ECD with His-tag, Acro Biosystems) (cynomolgus monkey, UniProt A0A2K5V556 26-232); assay: as above
T9 construct: bought; also called cynomolgus IL-4R
T9 sequence (A0A2K5V556 entry or part of it limits assumed): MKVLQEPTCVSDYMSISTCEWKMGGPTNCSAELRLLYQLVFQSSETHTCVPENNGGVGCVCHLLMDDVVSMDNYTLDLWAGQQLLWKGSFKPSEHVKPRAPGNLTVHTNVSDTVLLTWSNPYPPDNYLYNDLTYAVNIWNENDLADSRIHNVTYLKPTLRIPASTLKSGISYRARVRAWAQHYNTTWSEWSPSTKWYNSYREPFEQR
Method: as §4

[9] = molecular target: T10, recombinant human IL-31 protein (Peprotech) (human, UniProt Q6EBC2 24-164); assay: cell-based or functional assay
T10 sequence (looked up): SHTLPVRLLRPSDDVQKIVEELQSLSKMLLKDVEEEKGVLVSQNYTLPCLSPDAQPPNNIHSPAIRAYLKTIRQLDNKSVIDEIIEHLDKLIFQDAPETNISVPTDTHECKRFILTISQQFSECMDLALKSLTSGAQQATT

[10] = molecular target: T5, human IL-4R on cells (HEK-Blue …); assay: cell-based or functional assay; remark: listed apart in the source
[11] = molecular target: T5, human IL-4R on cells (HEK-Blue …); assay: cell-based or functional assay; remark: listed apart in the source
[12] = molecular target: T5, human IL-4R on cells (HEK-Blue …); assay: cell-based or functional assay; remark: listed apart in the source
[13] = molecular target: recombinant cynomolgus monkey IL-31 (ECD with His Tag, Sino Biological) (cynomolgus monkey); assay: cell-based or functional assay
[14] = molecular target: T10, recombinant human IL-31 protein …; assay: cell-based or functional assay; remark: listed apart in the source
[15] = molecular target: T5, human IL-4R on cells (HEK-Blue …); assay: cell-based or functional assay; remark: listed apart in the source

B1: PRO1898 (scFv, V domains shown)
VH: EVQLVESGGGLVQPGGSLRLSCAASGFSSSSAHYMCWVRQAPGKGLEWIGCIYAGSRGSTYYASWAKGRFTISRDNSKNTVYLQMNSLRAEDTAVYYCARAAFVNRGVSWIWPYYFSLWGQGTLVTVSS
VL: DIQMTQSPSSLSARVGDRVTITCQASEDIESYLAWYQQKPGKAPKLLIYRASTLAYGVPSRFSGSGSGRDFTLTISSLQPEDFATYYCLGSSYSTGSNIFGTGTKVTVLG
notes: scFv; VL entry ends with LCDR3 (no FR4); also called 44-34-C10-sc08
Kd (cynomolgus IL-4R-Fc): 0.0908 nM
koff (cynomolgus IL-4R-Fc): 0.000109 s⁻¹
kon (cynomolgus IL-4R-Fc): 1.2e+06 M⁻¹ s⁻¹
IC50 [1]: 3.41 ng/mL
Kd (Human IL-4R-Fc [2]): 0.00791 nM
koff (Human IL-4R-Fc [2]): 1.7e-05 s⁻¹
kon (Human IL-4R-Fc [2]): 2.15e+06 M⁻¹ s⁻¹

B2: PRO1899 (scFv, V domains shown)
VH: EVQLVESGGGRVQPGGSLRLSCAASGFSSSSAHYMCWVRQAPGKGLEWIGCIYAGSRGSTYYASWAKGRFTISKASSTTVYLQMNSLRAEDTATYYCARAAFVNRGVSWIWPYYFSLWGQGTQVTVSS
VL: DIQMTQSPSSLSASVGDRVTITCQASEDIESYLAWYQQKPGKAPKLLIYRASTLAYGVPSRFSGSGSGTDFTLTISSLQPEDFATYYCLGSSYSTGSNIFGTGTKVTVLG
notes: scFv; VL entry ends with LCDR3 (no FR4); also called 44-34-C10-sc09
Kd (cynomolgus IL-4R-Fc): 0.012 nM
koff (cynomolgus IL-4R-Fc): 0.00014 s⁻¹
kon (cynomolgus IL-4R-Fc): 1.1e+07 M⁻¹ s⁻¹
IC50 [1]: 2.98 ng/mL
Kd (Human IL-4R-Fc [2]): 0.00692 nM
koff (Human IL-4R-Fc [2]): 2.04e-05 s⁻¹
kon (Human IL-4R-Fc [2]): 2.95e+06 M⁻¹ s⁻¹

B3: PRO1535 (scFv)
chain: DIQMTQSPSSLSASVGDRVTITCQASEDIESYLAWYQQKPGKPPKLLIYRASTLAYGVPSRFSGSGSGTDFTLTISSLQPEDFATYYCLGSSYSTGSNIFGTGTKVTVLGGGGGSGGGGSGGGGSGGGGSESQLVESGGGLVQPGGSLRLSCAASGFSSSSAHYMCWVRQAPGKGLEWIACIYAGSRGSTYYASWAKGRFTISKDNSKNTVYLQMNSLRAEDTAVYFCARAAFVNRGVSWIWPYYFSLWGQGTLVTVSS
Kd (marmoset IL-4R ECD): 0.787 nM
koff (marmoset IL-4R ECD): 0.00254 s⁻¹
kon (marmoset IL-4R ECD): 3.23e+06 M⁻¹ s⁻¹
IC50, neutralization of hIL-4-induced signaling, stat-6 reporter gene assay [3]: 1.15 ng/mL
IC50, neutralization of hIL-13-induced signaling, stat-6 reporter gene assay [3]: 2.3 ng/mL
Kd (Human IL-4R-Fc [4]): 0.0199 nM
koff (Human IL-4R-Fc [4]): 5.42e-05 s⁻¹
kon (Human IL-4R-Fc [4]): 2.72e+06 M⁻¹ s⁻¹

B4: PRO2199 (bispecific antibody, human IgG4 S228P, kappa)
light: DIQMTQSPSSLSASVGDRVTITCQASEDIESYLAWYQQKPGKAPKLLIYRASTLAYGVPSRFSGSGSGTDFTLTISSLQPEDFATYYCLGSSYSTGSNIFGQGTKVEIKRTVAAPSVFIFPPSDEQLKSGTASVVCLLNNFYPREAKVQWKVDNALQSGNSQESVTEQDSKDSTYSLSSTLTLSKADYEKHKVYACEVTHQGLSSPVTKSFNRGEC
heavy: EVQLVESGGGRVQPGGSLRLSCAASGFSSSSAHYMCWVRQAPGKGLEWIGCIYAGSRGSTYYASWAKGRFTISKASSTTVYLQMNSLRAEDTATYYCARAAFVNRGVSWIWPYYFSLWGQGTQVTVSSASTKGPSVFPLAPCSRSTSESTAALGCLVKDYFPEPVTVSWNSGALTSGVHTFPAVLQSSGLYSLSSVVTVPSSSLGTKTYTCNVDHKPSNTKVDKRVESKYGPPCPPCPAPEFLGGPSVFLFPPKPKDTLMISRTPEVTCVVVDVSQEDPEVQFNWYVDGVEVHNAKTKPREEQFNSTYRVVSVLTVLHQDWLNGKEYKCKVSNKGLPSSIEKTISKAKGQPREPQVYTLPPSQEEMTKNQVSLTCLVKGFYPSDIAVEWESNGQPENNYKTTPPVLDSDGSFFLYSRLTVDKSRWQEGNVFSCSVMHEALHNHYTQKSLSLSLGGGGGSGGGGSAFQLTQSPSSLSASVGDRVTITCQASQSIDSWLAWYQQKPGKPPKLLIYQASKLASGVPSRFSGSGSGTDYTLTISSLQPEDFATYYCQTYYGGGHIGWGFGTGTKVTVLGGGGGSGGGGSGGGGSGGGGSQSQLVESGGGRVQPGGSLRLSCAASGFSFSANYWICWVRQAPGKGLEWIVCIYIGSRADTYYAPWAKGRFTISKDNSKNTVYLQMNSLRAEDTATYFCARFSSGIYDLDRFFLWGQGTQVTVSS
notes: IgG4 (S228P) Morrison-H; also called Morrison-H; MorrH
EC50 [5]: 0.85 nM
EC50 [6]: 1.78 nM
Kd [7]: 0.197 nM
koff [7]: 5.76e-05 s⁻¹
kon [7]: 293000 M⁻¹ s⁻¹
Kd [8]: 0.0351 nM
koff [8]: 3.44e-05 s⁻¹
kon [8]: 980000 M⁻¹ s⁻¹
IC50 (read off the curve), human IL-31-induced IL-31RA/OSMR dimerization, with an excess of IL-4R extracellular domain in the medium [9]: ~0.1 nM
IC50, IL-4-induced CD23 expression, memory B cells [10]: 2.53 nM
IC50, IL-4-induced CD23 expression, monocytes (blood donor 1) [10]: 0.0697 nM
IC50, IL-4-induced CD23 expression, naive B cells [10]: 1.1 nM
Mean IC50, human IL-4-induced signaling, stat-6 reporter gene assay [11]: 0.0115 nM
IC50, IL-4-induced TARC secretion in human whole blood [12]: < 0.5 nM
IC50, cynomolgus IL-31-induced IL-31RA/OSMR dimerization (RLU) [table under the graph] [13]: 1.21 nM
Mean IC50, human IL-31-induced signaling, IL-31RA/OSMR dimerization assay [14]: 0.142 nM
IC50 (single analysis), human IL-13-induced signaling, stat-6 reporter gene assay [15]: 0.0113 nM
